The assay has as its target RVFV Gn, WT sequence, transiently expressed in Expi293F cells (Rift Valley fever virus, GenBank …). Put plainly: flow cytometry on cells. Particulars: one partner purified.

B1: RVFV-268 IgG1 (antibody, V domains shown)
VH: QVHLVESGGGVVQPGKSLRLSCAASGFIFNHFGIHWVRQSPGKGLEWVAVIWYDGSKKYFADSVKGRFSISRDNSQNTVYLQMNSLRTEDTAVYYCARERWSGHSYLDYWGHGALVTVSS
VL: SNVLTQPPSVSVAPGQTARISCGGNNLESKYVHWYQQKPGQAPVLVVYEDSGRPSGIPERFSGSNSGGTATLTISRVEAGDEADYYCQEWDTSSDYPVFGGGTKVTVL
notes: copies: 2 + 2
As to B1, the binding result is on record as “binds”.

For the origin of these results see paper PMC10499838 (Nature Communications, 2023).
